Consider 5 molecules from doi:10.1101/2020.02.01.930206 (bioRxiv, 2020).

In data set [1] the target is T1, Drosophila melanogaster CIAO1 (Drosophila melanogaster, UniProt Q7K1Y4 1-335).
T1 sequence: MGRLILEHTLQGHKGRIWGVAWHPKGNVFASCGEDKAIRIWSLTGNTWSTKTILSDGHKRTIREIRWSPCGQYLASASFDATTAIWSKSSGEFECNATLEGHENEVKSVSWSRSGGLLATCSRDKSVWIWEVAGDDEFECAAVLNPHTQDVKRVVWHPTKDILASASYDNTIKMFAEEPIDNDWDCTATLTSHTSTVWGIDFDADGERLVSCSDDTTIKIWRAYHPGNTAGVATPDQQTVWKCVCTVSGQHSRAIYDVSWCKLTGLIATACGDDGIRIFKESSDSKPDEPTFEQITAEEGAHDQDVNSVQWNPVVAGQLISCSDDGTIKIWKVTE
The data set is described as follows: crystal structure.

For data set [2], the target named is T2, full-length mouse MMS19 (mouse, UniProt Q9D071 1-1031).
T2 sequence: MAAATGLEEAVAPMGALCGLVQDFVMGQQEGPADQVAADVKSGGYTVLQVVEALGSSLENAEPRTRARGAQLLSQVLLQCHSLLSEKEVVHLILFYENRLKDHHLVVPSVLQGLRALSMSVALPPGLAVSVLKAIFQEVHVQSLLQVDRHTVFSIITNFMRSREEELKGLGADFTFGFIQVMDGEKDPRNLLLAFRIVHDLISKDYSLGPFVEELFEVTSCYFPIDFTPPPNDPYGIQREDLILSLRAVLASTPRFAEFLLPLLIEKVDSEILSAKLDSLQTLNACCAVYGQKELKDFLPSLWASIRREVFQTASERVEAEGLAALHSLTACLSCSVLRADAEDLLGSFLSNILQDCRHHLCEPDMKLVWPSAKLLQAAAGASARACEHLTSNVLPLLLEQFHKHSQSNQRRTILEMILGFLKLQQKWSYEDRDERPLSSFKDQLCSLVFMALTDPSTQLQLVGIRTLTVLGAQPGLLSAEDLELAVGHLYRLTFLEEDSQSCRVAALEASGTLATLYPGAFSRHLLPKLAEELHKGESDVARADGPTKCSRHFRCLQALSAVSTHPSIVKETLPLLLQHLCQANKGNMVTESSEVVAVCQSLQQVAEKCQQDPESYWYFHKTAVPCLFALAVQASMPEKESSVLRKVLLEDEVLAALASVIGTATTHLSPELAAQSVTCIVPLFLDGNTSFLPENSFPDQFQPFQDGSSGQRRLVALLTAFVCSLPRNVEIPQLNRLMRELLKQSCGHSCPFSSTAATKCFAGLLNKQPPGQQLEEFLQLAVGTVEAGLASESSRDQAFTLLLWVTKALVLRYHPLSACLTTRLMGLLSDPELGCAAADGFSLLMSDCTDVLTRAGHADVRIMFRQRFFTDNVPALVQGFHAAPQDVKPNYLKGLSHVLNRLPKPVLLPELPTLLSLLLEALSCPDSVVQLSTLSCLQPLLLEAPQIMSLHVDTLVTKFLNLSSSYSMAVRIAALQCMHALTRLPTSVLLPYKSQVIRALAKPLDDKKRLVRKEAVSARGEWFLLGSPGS
In words: crystal structure.

Data set [3] deals with the molecule itself. The data set is described as follows: crystal structure.
Data set [4] deals with full-length human CIA targeting complex (MMS19-CIAO1-CIAO2B) (human, UniProt Q96T76;O76071;Q9Y3D0). In words: ITC. (ITC needs no label: the signal is the heat of the interaction.)
full-length human CIA targeting complex (MMS19-CIAO1-CIAO2B), sequence (O76071 whole entry, one chain of several): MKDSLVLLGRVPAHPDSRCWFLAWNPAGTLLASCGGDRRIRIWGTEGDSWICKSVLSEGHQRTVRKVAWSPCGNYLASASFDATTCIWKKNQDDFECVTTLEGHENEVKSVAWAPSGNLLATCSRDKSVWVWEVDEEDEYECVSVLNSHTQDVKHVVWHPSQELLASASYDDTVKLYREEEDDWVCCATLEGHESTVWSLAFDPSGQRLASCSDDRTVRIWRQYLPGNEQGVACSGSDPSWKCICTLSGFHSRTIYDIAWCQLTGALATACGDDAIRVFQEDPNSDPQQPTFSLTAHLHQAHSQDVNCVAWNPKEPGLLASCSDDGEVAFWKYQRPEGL
Data set [5] deals with human MMS19^381-1030-CIAO1-CIAO2B complex (human, UniProt Q96T76;O76071;Q9Y3D0). In words: ITC.
human MMS19^381-1030-CIAO1-CIAO2B complex, sequence (O76071 whole entry, one chain of several): as above
Data set [6] has as its target human CIAO1-CIAO2B core complex (human, UniProt O76071;Q9Y3D0). The data set is described as follows: ITC.
Data set [7] concerns the molecule itself. In words: negative-stain electron microscopy.

human CIAO1-CIAO2B core complex, sequence (O76071 whole entry, one chain of several): as above

B1: Drosophila melanogaster CIAO2B (natural protein)
chain: MPTEIENINPNVYDRIKERVLTANEEDENVPDPFDKREIFDLIRNINDPEHPLTLEELHVVQEDLIRINDSQNSVHISFTPTIPHCSMATLIGLSIRVKLLRSLPPRFKVTVEITPGTHASELAVNKQLADKERVAAALENNHLAEVINQCIAAKG
Turning to B1, the binding result in data set [1], in data set [2] and in data set [3] was “binds” throughout.

B2: Drosophila melanogaster CIAO1-CIAO2B core complex (complex)
chain 1: T1 sequence
chain 2: B1 chain
With B2, in data set [2], the binding result is “binds”.

B3: human primase (PriL-PriS heterodimer) (complex)
chain 1: MEFSGRKWRKLRLAGDQRNASYPHCLQFYLQPPSENISLIEFENLAIDRVKLLKSVENLGVSYVKGTEQYQSKLESELRKLKFSYRENLEDEYEPRRRDHISHFILRLAYCQSEELRRWFIQQEMDLLRFRFSILPKDKIQDFLKDSQLQFEAISDEEKTLREQEIVASSPSLSGLKLGFESIYKIPFADALDLFRGRKVYLEDGFAYVPLKDIVAIILNEFRAKLSKALALTARSLPAVQSDERLQPLLNHLSHSYTGQDYSTQGNVGKISLDQIDLLSTKSFPPCMRQLHKALRENHHLRHGGRMQYGLFLKGIGLTLEQALQFWKQEFIKGKMDPDKFDKGYSYNIRHSFGKEGKRTDYTPFSCLKIILSNPPSQGDYHGCPFRHSDPELLKQKLQSYKISPGGISQILDLVKGTHYQVACQKYFEMIHNVDDCGFSLNHPNQFFCESQRILNGGKDIKKEPIQPETPQPKPSVQKTKDASSALASLNSSLEMDMEGLEDYFSEDS
chain 2: METFDPTELPELLKLYYRRLFPYSQYYRWLNYGGVIKNYFQHREFSFTLKDDIYIRYQSFNNQSDLEKEMQKMNPYKIDIGAVYSHRPNQHNTVKLGAFQAQEKELVFDIDMTDYDDVRRCCSSADICPKCWTLMTMAIRIIDRALKEDFGFKHRLWVYSGRRGVHCWVCDESVRKLSSAVRSGIVEYLSLVKGGQDVKKKVHLSEKIHPFIRKSINIIKKYFEEYALVNQDILENKESWDKILALVPETIHDELQQSFQKSHNSLQRWEHLKKVASRYQNNIKNDKYGPWLEWEIMLQYCFPRLDINVSKGINHLLKSPFSVHPKTGRISVPIDLQKVDQFDPFTVPTISFICRELDAISTNEEEKEENEAESDVKHRTRDYKKTSLAPYVKVFEHFLENLDKSRKGELLKKSDLQKDF
B3: the results for the Kd in data set [4] and in data set [5] were 35 nM and 508 nM, respectively.

B4: human primase small subunit PriS (natural protein)
chain: B3 chain 2
Turning to B4, in data set [6], the Kd (as a rule, the free concentration of one partner at which half of the binding sites on the other are occupied at equilibrium, for simple one-to-one binding) was 3100 nM.

B5: all-mouse CIA targeting complex (MmMMS19-MmCIAO1-CIAO2B) (complex)
chain 1: T2 sequence
chain 2: not shown
chain 3: MVGGGGSGGGLLENANPLIYERSGERPVTAGEEDEEVPDSIDAREIFDLIRSINDPEHPLTLEELNVVEQVRIQVSDPESTVAVAFTPTIPHCSMATLIGLSIKVKLLRSLPQRFKMDVHITPGTHASEHAVNKQLADKERVAAALENTHLLEVVNQCLSARS
For the molecule B5, the binding result in data set [7] is on record as “binds”.
